The text below walks through data of PMC5159555 (Nucleic Acids Research, 2016).

Like-named read-outs stand apart in the source and are kept apart here.

Experiment [1] concerns the target T1, FANCI-FANCD2 (I-D) complex (chicken, UniProt B0I564 1-1338; Q68Y81 1-1439). The experiment is described as follows: pull-down.
For experiment [2], the target named is T2, His6-tagged chicken FANCI (chicken, UniProt B0I564 1-1338).
T2 sequence (looked up): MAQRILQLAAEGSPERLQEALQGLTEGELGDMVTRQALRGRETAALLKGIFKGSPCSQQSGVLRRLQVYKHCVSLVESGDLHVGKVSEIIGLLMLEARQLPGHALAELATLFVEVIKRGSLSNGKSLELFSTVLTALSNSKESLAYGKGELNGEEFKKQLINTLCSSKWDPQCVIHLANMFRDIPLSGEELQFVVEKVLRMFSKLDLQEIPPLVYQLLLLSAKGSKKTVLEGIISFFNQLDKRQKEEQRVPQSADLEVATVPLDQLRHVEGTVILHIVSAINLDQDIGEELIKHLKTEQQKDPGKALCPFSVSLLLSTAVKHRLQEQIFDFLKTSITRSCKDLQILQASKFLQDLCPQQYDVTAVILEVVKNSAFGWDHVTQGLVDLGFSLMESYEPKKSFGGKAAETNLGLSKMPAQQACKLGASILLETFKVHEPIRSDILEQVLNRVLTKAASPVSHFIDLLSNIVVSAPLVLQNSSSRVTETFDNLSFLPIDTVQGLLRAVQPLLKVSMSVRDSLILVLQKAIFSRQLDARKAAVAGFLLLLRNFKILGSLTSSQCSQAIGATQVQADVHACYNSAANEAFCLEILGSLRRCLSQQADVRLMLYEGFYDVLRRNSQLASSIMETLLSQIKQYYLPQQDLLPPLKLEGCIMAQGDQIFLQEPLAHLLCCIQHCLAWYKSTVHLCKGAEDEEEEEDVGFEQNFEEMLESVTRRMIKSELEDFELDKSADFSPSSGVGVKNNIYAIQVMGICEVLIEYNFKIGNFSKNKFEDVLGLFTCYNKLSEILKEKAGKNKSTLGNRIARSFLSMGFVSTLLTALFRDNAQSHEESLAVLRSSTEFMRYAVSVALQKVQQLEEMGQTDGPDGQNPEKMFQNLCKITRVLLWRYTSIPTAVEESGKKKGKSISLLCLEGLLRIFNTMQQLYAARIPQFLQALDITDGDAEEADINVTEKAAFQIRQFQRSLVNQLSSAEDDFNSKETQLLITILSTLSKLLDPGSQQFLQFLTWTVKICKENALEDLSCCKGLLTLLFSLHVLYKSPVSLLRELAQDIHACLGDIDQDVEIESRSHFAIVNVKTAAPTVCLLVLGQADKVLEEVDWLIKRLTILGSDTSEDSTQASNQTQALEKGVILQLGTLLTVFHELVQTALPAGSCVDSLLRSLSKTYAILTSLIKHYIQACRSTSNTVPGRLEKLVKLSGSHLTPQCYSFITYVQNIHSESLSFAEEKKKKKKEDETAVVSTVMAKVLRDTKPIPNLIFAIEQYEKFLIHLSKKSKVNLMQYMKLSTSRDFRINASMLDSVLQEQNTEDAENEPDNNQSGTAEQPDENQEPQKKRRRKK
The experiment is described as follows: pull-down.

In experiment [3] the target is His6-tagged chicken FANCD2 (chicken, UniProt Q68Y81 1-1439). The experiment is described as follows: pull-down.
Sequence of His6-tagged chicken FANCD2 (Q68Y81 whole entry): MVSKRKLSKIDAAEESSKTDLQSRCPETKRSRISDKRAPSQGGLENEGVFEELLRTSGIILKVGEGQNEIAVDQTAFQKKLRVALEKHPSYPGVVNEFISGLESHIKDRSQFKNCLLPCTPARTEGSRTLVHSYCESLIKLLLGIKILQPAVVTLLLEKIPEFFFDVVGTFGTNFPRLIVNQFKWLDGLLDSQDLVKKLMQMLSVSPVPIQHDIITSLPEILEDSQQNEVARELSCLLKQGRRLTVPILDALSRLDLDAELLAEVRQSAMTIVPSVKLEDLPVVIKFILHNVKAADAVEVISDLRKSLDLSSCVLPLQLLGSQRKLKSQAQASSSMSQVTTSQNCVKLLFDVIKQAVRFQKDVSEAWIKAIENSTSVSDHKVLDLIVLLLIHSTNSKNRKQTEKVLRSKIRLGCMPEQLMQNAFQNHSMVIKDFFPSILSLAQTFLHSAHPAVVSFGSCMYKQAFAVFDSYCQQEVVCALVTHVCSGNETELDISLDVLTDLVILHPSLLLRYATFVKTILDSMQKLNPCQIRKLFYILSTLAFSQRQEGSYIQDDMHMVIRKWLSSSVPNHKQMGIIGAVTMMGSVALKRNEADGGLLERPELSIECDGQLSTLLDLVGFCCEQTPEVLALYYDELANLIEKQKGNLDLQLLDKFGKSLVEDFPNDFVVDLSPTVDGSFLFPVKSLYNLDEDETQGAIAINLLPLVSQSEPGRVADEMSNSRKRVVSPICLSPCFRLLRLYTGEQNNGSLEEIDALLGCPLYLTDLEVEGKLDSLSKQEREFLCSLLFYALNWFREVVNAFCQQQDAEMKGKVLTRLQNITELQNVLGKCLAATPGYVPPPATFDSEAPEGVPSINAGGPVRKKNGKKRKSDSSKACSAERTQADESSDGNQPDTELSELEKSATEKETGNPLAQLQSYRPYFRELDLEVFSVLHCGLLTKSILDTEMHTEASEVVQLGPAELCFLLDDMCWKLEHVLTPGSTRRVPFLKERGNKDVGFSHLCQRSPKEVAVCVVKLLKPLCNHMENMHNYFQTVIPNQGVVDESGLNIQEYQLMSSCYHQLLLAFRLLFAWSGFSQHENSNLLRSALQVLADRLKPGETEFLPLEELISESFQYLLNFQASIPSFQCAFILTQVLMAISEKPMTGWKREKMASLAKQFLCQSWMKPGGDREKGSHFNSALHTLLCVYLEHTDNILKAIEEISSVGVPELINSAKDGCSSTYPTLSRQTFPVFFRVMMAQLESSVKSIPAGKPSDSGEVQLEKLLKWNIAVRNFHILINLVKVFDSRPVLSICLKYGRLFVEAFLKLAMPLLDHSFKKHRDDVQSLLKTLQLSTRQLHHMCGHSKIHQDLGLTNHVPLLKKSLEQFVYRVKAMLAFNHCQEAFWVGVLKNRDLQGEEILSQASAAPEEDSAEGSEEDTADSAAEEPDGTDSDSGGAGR
Experiment [4] concerns the target His6-tagged FANCD2 complexed with FANCI (chicken, UniProt Q68Y81 1-1439; B0I564 1-1338). The experiment in a line: pull-down.
Experiment [5] has as its target T1, FANCI-FANCD2 (I-D) complex. The experiment in a line: pull-down. This is another data set of the same source.
Another experiment deals with chicken FANCD2 (chicken, UniProt Q68Y81 1-1439). The experiment in a line: SEC.
Sequence of chicken FANCD2 (Q68Y81 whole entry): as above

T1 sequence (Q68Y81 whole entry, one chain of several): as the sequence (Q68Y81 whole entry) above
Sequence of His6-tagged FANCD2 complexed with FANCI (Q68Y81 whole entry, one chain of several): as the sequence (Q68Y81 whole entry) above

B1: chicken RAD51 (natural protein, UniProt P37383 1-339, looked up)
chain: MAMQVQFEASTDTSAEEESFGPEPISRLEQCGINANDVKKLEEAGYHTVESVAHAPKKELLNIKGISEAKADKILAEAAKLVPMGFTTATEFHQRRSEIIQITTGSKELDKLLQGGIETGSITELFGEFRTGKTQLCHTLAVTCQLPIDRGGGEGKAMYIDTEGTFRPERLLAVAERYGLSGSDVLDNVAYARGFNTDHQTQLLYQASAMMAESRYALLIVDSATALYRTDYSGRGELSARQMHLARFLRMLLRLADEFGVAVVITNQVVAQVDGAAMFAADPKKPIGGNIIAHASTTRLYLRKGRGETRICKIYDSPCLPEAEAMFAINADGVGDAKE
In the case of B1, the binding result in experiment [1], in experiment [2], in experiment [3] and in experiment [4] was “binds” each time.

B2: His6-tagged chicken RAD51 (natural protein, UniProt P37383 1-339, looked up)
chain: MAMQVQFEASTDTSAEEESFGPEPISRLEQCGINANDVKKLEEAGYHTVESVAHAPKKELLNIKGISEAKADKILAEAAKLVPMGFTTATEFHQRRSEIIQITTGSKELDKLLQGGIETGSITELFGEFRTGKTQLCHTLAVTCQLPIDRGGGEGKAMYIDTEGTFRPERLLAVAERYGLSGSDVLDNVAYARGFNTDHQTQLLYQASAMMAESRYALLIVDSATALYRTDYSGRGELSARQMHLARFLRMLLRLADEFGVAVVITNQVVAQVDGAAMFAADPKKPIGGNIIAHASTTRLYLRKGRGETRICKIYDSPCLPEAEAMFAINADGVGDAKE
B2: the binding result in experiment [5] is given as “binds”.

B3: His6-tagged chicken RAD51 F86E mutant (natural protein, UniProt P37383 1-339, looked up)
chain: MAMQVQFEASTDTSAEEESFGPEPISRLEQCGINANDVKKLEEAGYHTVESVAHAPKKELLNIKGISEAKADKILAEAAKLVPMGETTATEFHQRRSEIIQITTGSKELDKLLQGGIETGSITELFGEFRTGKTQLCHTLAVTCQLPIDRGGGEGKAMYIDTEGTFRPERLLAVAERYGLSGSDVLDNVAYARGFNTDHQTQLLYQASAMMAESRYALLIVDSATALYRTDYSGRGELSARQMHLARFLRMLLRLADEFGVAVVITNQVVAQVDGAAMFAADPKKPIGGNIIAHASTTRLYLRKGRGETRICKIYDSPCLPEAEAMFAINADGVGDAKE
On to B3, for which the binding result in experiment [5] is listed as “binds”.

B4: chicken FANCI (natural protein, UniProt B0I564 1-1338, looked up)
chain: MAQRILQLAAEGSPERLQEALQGLTEGELGDMVTRQALRGRETAALLKGIFKGSPCSQQSGVLRRLQVYKHCVSLVESGDLHVGKVSEIIGLLMLEARQLPGHALAELATLFVEVIKRGSLSNGKSLELFSTVLTALSNSKESLAYGKGELNGEEFKKQLINTLCSSKWDPQCVIHLANMFRDIPLSGEELQFVVEKVLRMFSKLDLQEIPPLVYQLLLLSAKGSKKTVLEGIISFFNQLDKRQKEEQRVPQSADLEVATVPLDQLRHVEGTVILHIVSAINLDQDIGEELIKHLKTEQQKDPGKALCPFSVSLLLSTAVKHRLQEQIFDFLKTSITRSCKDLQILQASKFLQDLCPQQYDVTAVILEVVKNSAFGWDHVTQGLVDLGFSLMESYEPKKSFGGKAAETNLGLSKMPAQQACKLGASILLETFKVHEPIRSDILEQVLNRVLTKAASPVSHFIDLLSNIVVSAPLVLQNSSSRVTETFDNLSFLPIDTVQGLLRAVQPLLKVSMSVRDSLILVLQKAIFSRQLDARKAAVAGFLLLLRNFKILGSLTSSQCSQAIGATQVQADVHACYNSAANEAFCLEILGSLRRCLSQQADVRLMLYEGFYDVLRRNSQLASSIMETLLSQIKQYYLPQQDLLPPLKLEGCIMAQGDQIFLQEPLAHLLCCIQHCLAWYKSTVHLCKGAEDEEEEEDVGFEQNFEEMLESVTRRMIKSELEDFELDKSADFSPSSGVGVKNNIYAIQVMGICEVLIEYNFKIGNFSKNKFEDVLGLFTCYNKLSEILKEKAGKNKSTLGNRIARSFLSMGFVSTLLTALFRDNAQSHEESLAVLRSSTEFMRYAVSVALQKVQQLEEMGQTDGPDGQNPEKMFQNLCKITRVLLWRYTSIPTAVEESGKKKGKSISLLCLEGLLRIFNTMQQLYAARIPQFLQALDITDGDAEEADINVTEKAAFQIRQFQRSLVNQLSSAEDDFNSKETQLLITILSTLSKLLDPGSQQFLQFLTWTVKICKENALEDLSCCKGLLTLLFSLHVLYKSPVSLLRELAQDIHACLGDIDQDVEIESRSHFAIVNVKTAAPTVCLLVLGQADKVLEEVDWLIKRLTILGSDTSEDSTQASNQTQALEKGVILQLGTLLTVFHELVQTALPAGSCVDSLLRSLSKTYAILTSLIKHYIQACRSTSNTVPGRLEKLVKLSGSHLTPQCYSFITYVQNIHSESLSFAEEKKKKKKEDETAVVSTVMAKVLRDTKPIPNLIFAIEQYEKFLIHLSKKSKVNLMQYMKLSTSRDFRINASMLDSVLQEQNTEDAENEPDNNQSGTAEQPDENQEPQKKRRRKK
For the molecule B4, the binding result with chicken FANCD2 is “binds”.
